According to patent publication EP1869192B1 (MedImmune, LLC, dated 2016):

How the values were obtained:
[1] = target: Human EphA2-Fc fusion protein (human EphA2 fused with the Fc portion of a human IgG1) (human) (UniProt P29317); assay: single point ELISA: 1 ug goat anti-human Fd capture, biotinylated human EphA2-Fc 300-600 ng/well, neutravidin-HRP
[2] = target: Human EphA2-Fc fusion protein (human EphA2 fused with the Fc portion of a human IgG1) (human) (UniProt P29317); assay: SPR (BIAcore), human IgG1 format on immobilized EphA2-Fc
[3] = target: Human EphA2-Fc fusion protein (human EphA2 fused with the Fc portion of a human IgG1) (human) (UniProt P29317); assay: SPR (BIAcore 3000), EphA2-Fc amine-coupled to CM5 chip (about 500 RU), IgG in solution, 25 C, 1:1 Langmuir fit
[4] = target: Human EphA2-Fc fusion protein (human EphA2 fused with the Fc portion of a human IgG1) (human) (UniProt P29317); assay: SPR (BIAcore 3000), EphA2-Fc amine-coupled to CM5 chip (about 500 RU), IgG in solution, 25 C, KD = koff/kon
[5] = target: Human EphA2-Fc fusion protein (human EphA2 fused with the Fc portion of a human IgG1) (human) (UniProt P29317); assay: single point ELISA: periplasmic Fab captured on 500 ng goat anti-human Fab, biotinylated human EphA2-Fc 300 ng/well, neutravidin-HRP
[6] = target: Human EphA2-Fc fusion protein (human EphA2 fused with the Fc portion of a human IgG1) (human) (UniProt P29317); assay: SPR (BIAcore 3000), EphA2-Fc amine-coupled to CM5 chip, IgG in solution, 25 C, 1:1 Langmuir fit
[7] = target: Human EphA2-Fc fusion protein (human EphA2 fused with the Fc portion of a human IgG1) (human) (UniProt P29317); assay: SPR (BIAcore 3000), EphA2-Fc amine-coupled to CM5 chip, IgG in solution, 25 C, KD = koff/kon
[8] = target: Human EphA2-Fc fusion protein (human EphA2 fused with the Fc portion of a human IgG1) (human) (UniProt P29317); assay: single point ELISA: periplasmic Fab captured on 1 ug goat anti-human Fd, biotinylated human EphA2-Fc 300-600 ng/well, neutravidin-HRP
[9] = target: Human EphA2-Fc fusion protein (human EphA2 fused with the Fc portion of a human IgG1) (human) (UniProt P29317); assay: second single point ELISA: periplasmic extract of 15 ml culture, 1 ug/well goat anti-human Fd capture, biotinylated EphA2-Fc
[10] = target: Human EphA2-Fc fusion protein (human EphA2 fused with the Fc portion of a human IgG1) (human) (UniProt P29317); assay: single point ELISA: periplasmic extract of 45 ml culture, 1 ug/well goat anti-human Fd capture, biotinylated EphA2-Fc
[11] = target: T1, Human EphA2-Fc fusion protein (human EphA2 fused with the Fc portion of a human IgG1) (human, UniProt P29317 24-534, limits assumed); assay: SPR (BIAcore 3000), EphA2-Fc amine-coupled to CM5 chip (about 500 RU), IgG in solution, 25 C, 1:1 Langmuir fit
T1 construct: also called biotinylated human EphA2-Fc; not shown: Fc portion of a human IgG1

[12] = target: T1, Human EphA2-Fc fusion protein (human …); assay: SPR (BIAcore 3000), EphA2-Fc amine-coupled to CM5 chip (about 500 RU), IgG in solution, 25 C, KD = koff/kon

T1 sequence (P29317 24-534 limits assumed): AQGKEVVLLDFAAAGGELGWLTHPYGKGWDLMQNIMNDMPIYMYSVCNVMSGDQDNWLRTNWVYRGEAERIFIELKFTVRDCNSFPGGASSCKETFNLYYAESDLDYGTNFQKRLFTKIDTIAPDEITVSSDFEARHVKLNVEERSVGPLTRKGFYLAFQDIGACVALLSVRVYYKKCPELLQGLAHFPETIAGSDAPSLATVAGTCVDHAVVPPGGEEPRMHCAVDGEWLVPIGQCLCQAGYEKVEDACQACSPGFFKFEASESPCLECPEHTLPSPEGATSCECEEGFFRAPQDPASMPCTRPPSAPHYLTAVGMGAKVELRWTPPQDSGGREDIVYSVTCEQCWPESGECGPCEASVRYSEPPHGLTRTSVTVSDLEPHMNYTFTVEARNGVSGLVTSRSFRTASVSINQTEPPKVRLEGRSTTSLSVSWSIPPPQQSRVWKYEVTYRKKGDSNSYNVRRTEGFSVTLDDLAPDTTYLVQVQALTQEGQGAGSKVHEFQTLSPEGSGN
Chain of Human EphA2-Fc fusion protein (human EphA2 fused with the Fc portion of a human IgG1) (human) (P29317 24-534 limits assumed): as above

With irrelevant antibody (Example 2) the OD450 (background signal) [1] was 0.3 OD450.

B1: VH-4H5/VL-4H5 as human IgG1 (antibody, from another filing, V domains shown)
VH: QVQLLESGGGLVQPGGSLRLSCAASGFTFSSYTMSWVRQAPGQALEWMGTISSGGTYTYYPDSVKGRFTISRDNAKNSLYLQMNSLRAEDTAVYYCAREAIFTYWGRGTLVTVSS
VL: DIQLTQSPSSLSASVGDRVTITCKASQDINNYLSWYQQKPGQAPRLLIYRANRLVDGVPDRFSGSGYGTDFTLTINNIESEDAAYYFCLKYDVFPYTFGQGTKVEIK
B1 showed a fold increase of avidity against parental mAb EA2 [2] of 90 fold.

B2: VH-4H5/VL-"corrected" 4H5 as human IgG1 (antibody, from another filing, V domains shown)
VH: QVQLLESGGGLVQPGGSLRLSCAASGFTFSSYTMSWVRQAPGQALEWMGTISSGGTYTYYPDSVKGRFTISRDNAKNSLYLQMNSLRAEDTAVYYCAREAIFTYWGRGTLVTVSS
VL: DIQLTQSPSSLSASVGDRVTITCKASQDINNYLSWYQQKPGQAPRLLIYRANRLVDGVPDRFSGSGYGTDFTLTINNIESEDAAYYFCLKYDEFPYTFGQGTKVEIK
In the case of B2, the fold increase of avidity against parental mAb EA2 [2] is reported as 4 fold, the koff [3] is reported as 0.00105 s⁻¹ and the kon [3] is reported as 750000 M⁻¹ s⁻¹. For the same molecule, the Kd [4] was 1.4 nM.

B3: Fab clone VH-2G6/VL-12C8 (Fab, from another filing, V domains shown)
VH: EVQLVESGGGVVRPGGSLRLSCAASGFTVSDYSMNWVRQAPGKGLEWIGFIRNKANDYTTEYSASVKGRFTISRDDSKNTLYLQMNSLKTEDTAVYYCTTYPRYHAMDSWGQGTMVTVSS
VL: AIQLTQSPSSLSASVGDRVTITCRASQSISNNLHWYLQKPGQSPQLLIYYVFQSISGVPSRFSGSGSGTDFTLTISSLQPEDFATYYCQQSNSWPLTFGGGTKLEIK
B3 gave an OD450 [5] of 2.8 OD450.

B4: Fab clone VH-6H11/VL-8G7 (Fab, from another filing, V domains shown)
VH: EVQLVESGGGLVQPGGSLRLSCAASGFTFSDYSMNWVRQAPGKGLEWVAFIRNKANDYTTEYSASVKGRFTISRDNSKNTLYLQMNSLRAEDTAMYYCARYPRYHAMDSWGQGTLVTVSS
VL: EIVLTQSPATLSVSPGERATLSCRASQSISNNLHWYQQKPGKAPKSLIYYVFQSISGVPSRFSGSGSGTDFTLTINSLEAEDAATYYCQQSNSWPLTFGGGTKVDIK
For B4, the OD450 [5] was 2.5 OD450.

B5: VH-2G6/VL-12C8 as full length human IgG1 (antibody, from another filing, V domains shown)
VH: EVQLVESGGGVVRPGGSLRLSCAASGFTVSDYSMNWVRQAPGKGLEWIGFIRNKANDYTTEYSASVKGRFTISRDDSKNTLYLQMNSLKTEDTAVYYCTTYPRYHAMDSWGQGTMVTVSS
VL: AIQLTQSPSSLSASVGDRVTITCRASQSISNNLHWYLQKPGQSPQLLIYYVFQSISGVPSRFSGSGSGTDFTLTISSLQPEDFATYYCQQSNSWPLTFGGGTKLEIK
B5 showed a koff [6] of 0.00019 s⁻¹, a kon [6] of 64000 M⁻¹ s⁻¹ and a fold decrease of avidity against parental mAb B233 [2] of 10 fold. For the same molecule, the Kd [7] was 3 nM.

B6: VH-6H11/VL-8G7 as full length human IgG1 (antibody, from another filing, V domains shown)
VH: EVQLVESGGGLVQPGGSLRLSCAASGFTFSDYSMNWVRQAPGKGLEWVAFIRNKANDYTTEYSASVKGRFTISRDNSKNTLYLQMNSLRAEDTAMYYCARYPRYHAMDSWGQGTLVTVSS
VL: EIVLTQSPATLSVSPGERATLSCRASQSISNNLHWYQQKPGKAPKSLIYYVFQSISGVPSRFSGSGSGTDFTLTINSLEAEDAATYYCQQSNSWPLTFGGGTKVDIK
Molecule B6 has a koff [6] of 0.00018 s⁻¹, a kon [6] of 96000 M⁻¹ s⁻¹ and a fold decrease of avidity against parental mAb B233 [2] of 6 fold. For the same molecule, the Kd [7] was 1.9 nM.

B7: Fab clone 4H5 (VH-4H5/VL-4H5) (Fab, from another filing, V domains shown)
VH: QVQLLESGGGLVQPGGSLRLSCAASGFTFSSYTMSWVRQAPGQALEWMGTISSGGTYTYYPDSVKGRFTISRDNAKNSLYLQMNSLRAEDTAVYYCAREAIFTYWGRGTLVTVSS
VL: DIQLTQSPSSLSASVGDRVTITCKASQDINNYLSWYQQKPGQAPRLLIYRANRLVDGVPDRFSGSGYGTDFTLTINNIESEDAAYYFCLKYDVFPYTFGQGTKVEIK
Work on B7 yielded an OD450 [8] of 3 OD450, a fold signal above background of the irrelevant antibody [8] of 10 fold and a [specific OD450/background OD450] ratio [9] of 30. For the same molecule, the [specific OD450/background OD450] ratio [10] was 23.

B8: Fab "corrected" clone 4H5 (VH-4H5/VL-"corrected" 4H5) (Fab, from another filing, V domains shown)
VH: QVQLLESGGGLVQPGGSLRLSCAASGFTFSSYTMSWVRQAPGQALEWMGTISSGGTYTYYPDSVKGRFTISRDNAKNSLYLQMNSLRAEDTAVYYCAREAIFTYWGRGTLVTVSS
VL: DIQLTQSPSSLSASVGDRVTITCKASQDINNYLSWYQQKPGQAPRLLIYRANRLVDGVPDRFSGSGYGTDFTLTINNIESEDAAYYFCLKYDEFPYTFGQGTKVEIK
In the case of B8, the [specific OD450/background OD450] ratio [10] is reported as 11.

B9: mAb EA2 (murine anti-human EphA2 monoclonal antibody) (antibody, V domains shown)
VH: DVKLVESGGGLVKPGGSLKLSCAASGFTFSSYTMSWVRQTPEKRLEWVATISSGGTYTYYPDSVKGRFTISRDNAKNTLYLQMSSLKSEDTAMYYCTREAIFTYWGQGTLVTVSA
VL: DIKMTQSPSSMYASLGERVTITCKASQDINNYLSWFQQKPGKSPKTLIYRANRVDGVPSRFSGSGSGQDYSLTISSLEYEDMGIYYCLKYDEFPYTFGGGTKLEIK
With B9 the koff [11] was 0.00307 s⁻¹, the kon [11] was 517000 M⁻¹ s⁻¹ and the Kd [12] was 5.94 nM.
